Tests used:
[1] = tested on: RD cells (cell surface nucleolin); assay: Lactoferrin competition of QD-F3 binding, RD; format: cell-based; conditions: 2 μM lactoferrin pretreatment 20 min, then 20 nM QD-F3 + 2 μM lactoferrin 1 h on ice, FACS
[2] = tested on: Rh30 cells (cell surface nucleolin); assay: Lactoferrin competition of QD-F3 binding, Rh30; format: cell-based; conditions: 2 μM lactoferrin pretreatment 20 min, then 20 nM QD-F3 + 2 μM lactoferrin 1 h on ice, FACS

B1: lactoferrin: human milk lactoferrin, high-affinity natural ligand of nucleolin (protein, UniProt P02788 20-710, looked up)
Lactotransferrin: GRRRSVQWCAVSQPEATKCFQWQRNMRKVRGPPVSCIKRDSPIQCIQAIAENRADAVTLDGGFIYEAGLAPYKLRPVAAEVYGTERQPRTHYYAVAVVKKGGSFQLNELQGLKSCHTGLRRTAGWNVPIGTLRPFLNWTGPPEPIEAAVARFFSASCVPGADKGQFPNLCRLCAGTGENKCAFSSQEPYFSYSGAFKCLRDGAGDVAFIRESTVFEDLSDEAERDEYELLCPDNTRKPVDKFKDCHLARVPSHAVVARSVNGKEDAIWNLLRQAQEKFGKDKSPKFQLFGSPSGQKDLLFKDSAIGFSRVPPRIDSGLYLGSGYFTAIQNLRKSEEEVAARRARVVWCAVGEQELRKCNQWSGLSEGSVTCSSASTTEDCIALVLKGEADAMSLDGGYVYTAGKCGLVPVLAENYKSQQSSDPDPNCVDRPVEGYLAVAVVRRSDTSLTWNSVKGKKSCHTAVDRTAGWNIPMGLLFNQTGSCKFDEYFSQSCAPGSDPRSNLCALCIGDEQGENKCVPNSNERYYGYTGAFRCLAENAGDVAFVKDVTVLQNTDGNNNEAWAKDLKLADFALLCLDGKRKPVTEARSCHLAMAPNHAVVSRMDKVERLKQVLLHQQAKFGRNGSDCPDKFCLFQSETKNLLFNDNTECLARLHGKTTYEKYLGPQYVAGITNLKKCSTSPLLEACEFLRK
What does the source list for B1?
QD-F3 binding upon co-incubation with excess lactoferrin [1]: clear decrease; QD-F3 binding upon co-incubation with excess lactoferrin [2]: clear decrease

— PMC9600270 (Cancers, 2022)
